# B1: Hairpin Ribozyme (parent)
# chain: GUCCUCUUUCACGUGCGCGUGAAAGAGAGAAGUGAACCAGAGAAACACACGUUGUGGUAUAUUACCUGGUA
# Variants of: B1
# Experiment: self-cleavage, relative activity (ratio to wild type); higher = more cleavage; co-transcriptional
row,Variant,self-cleavage
1,GUCCUGUUUCACGUGCGCGUGUAAGAGAGAAGUGAACCAGAGAAACACACGUUGUGGUAUAUUACCUGGUA [C6G A22U],0.377
2,GUCCUGUUUCACGUGCGCGUGAAAGGGAGAAGUGAACCAGAGAAACACACGUUGUGGUAUAUUACCUGGUA [C6G A26G],0.203
3,GUCCUGUUUCACGUGCGCGUGAAAGUGAGAAGUGAACCAGAGAAACACACGUUGUGGUAUAUUACCUGGUA [C6G A26U],0.198
4,GUCCUGUUUCACGUGCGCGUGAAAGAGCGAAGUGAACCAGAGAAACACACGUUGUGGUAUAUUACCUGGUA [C6G A28C],0.145
5,GUCCUGUUUCACGUGCGCGUGAAAGAGGGAAGUGAACCAGAGAAACACACGUUGUGGUAUAUUACCUGGUA [C6G A28G],0.605
6,GUCCUGUUUCACGUGCGCGUGAAAGAGUGAAGUGAACCAGAGAAACACACGUUGUGGUAUAUUACCUGGUA [C6G A28U],0.22
7,GUCCUGUUUCACGUGCGCGUGAAAGAGAGUAGUGAACCAGAGAAACACACGUUGUGGUAUAUUACCUGGUA [C6G A30U],0.105
8,GUCCUGUUUCACGUGCGCGUGAAAGAGAGAGGUGAACCAGAGAAACACACGUUGUGGUAUAUUACCUGGUA [C6G A31G],0.355
9,GUCCUGUUUCACGUGCGCGUGAAAGAGAGAAGUGGACCAGAGAAACACACGUUGUGGUAUAUUACCUGGUA [C6G A35G],0.414
10,GUCCUGUUUCACGUGCGCGUGAAAGAGAGAAGUGACCCAGAGAAACACACGUUGUGGUAUAUUACCUGGUA [C6G A36C],0.307
11,GUCCUGUUUCACGUGCGCGUGAAAGAGAGAAGUGAACCAGCGAAACACACGUUGUGGUAUAUUACCUGGUA [C6G A41C],0.552
12,GUCCUGUUUCACGUGCGCGUGAAAGAGAGAAGUGAACCAGAGGAACACACGUUGUGGUAUAUUACCUGGUA [C6G A43G],0.0944
13,GUCCUGUUUCACGUGCGCGUGAAAGAGAGAAGUGAACCAGAGUAACACACGUUGUGGUAUAUUACCUGGUA [C6G A43U],0.0915
14,GUCCUGUUUCACGUGCGCGUGAAAGAGAGAAGUGAACCAGAGACACACACGUUGUGGUAUAUUACCUGGUA [C6G A44C],0.17
15,GUCCUGUUUCACGUGCGCGUGAAAGAGAGAAGUGAACCAGAGAGACACACGUUGUGGUAUAUUACCUGGUA [C6G A44G],0.134
16,GUCCUGUUUCACGUGCGCGUGAAAGAGAGAAGUGAACCAGAGAUACACACGUUGUGGUAUAUUACCUGGUA [C6G A44U],0.148
17,GUCCUGUUUCACGUGCGCGUGAAAGAGAGAAGUGAACCAGAGAAACACCCGUUGUGGUAUAUUACCUGGUA [C6G A49C],0.0827
18,GUCCUGUUUCACGUGCGCGUGAAAGAGAGAAGUGAACCAGAGAAACACACGUUGUGGUAUGUUACCUGGUA [C6G A61G],0.147
19,GUCCUGUUUCACGUGCGCGUGAAAGAGAGAAGUGAACCAGAGAAACACACGUUGUGGUAUAUUACCUGGUU [C6G A71U],0.409
20,GUCCUGUUUAACGUGCGCGUGAAAGAGAGAAGUGAACCAGAGAAACACACGUUGUGGUAUAUUACCUGGUA [C6G C10A],0.354
21,GUCCUGUUUCACGUGGGCGUGAAAGAGAGAAGUGAACCAGAGAAACACACGUUGUGGUAUAUUACCUGGUA [C6G C16G],0.423
22,GUCCUGUUUCACGUGCGCGUGAAAGAGAGAAGUGAAUCAGAGAAACACACGUUGUGGUAUAUUACCUGGUA [C6G C37U],0.257
23,GUCCUGUUUCACGUGCGCGUGAAAGAGAGAAGUGAACCAGAGAAAGACACGUUGUGGUAUAUUACCUGGUA [C6G C46G],0.124
24,GUCCUGUUUCACGUGCGCGUGAAAGAGAGAAGUGAACCAGAGAAACAGACGUUGUGGUAUAUUACCUGGUA [C6G C48G],0.115
25,GUCCUGUUUCACGUGCGCGUGAAAGAGAGAAGUGAACCAGAGAAACACAUGUUGUGGUAUAUUACCUGGUA [C6G C50U],0.265
26,GUCCUGUUUCACGUGCGCGUGAAAGAGAGAAGUGAACCAGAGAAACACACGUUGUGGUAUAUUAUCUGGUA [C6G C65U],0.221

row,Variant,self-cleavage
1,GUCCUGUUUCACAUGCGCGUGAAAGAGAGAAGUGAACCAGAGAAACACACGUUGUGGUAUAUUACCUGGUA [C6G G13A],0.45
2,GUCCUGUUUCACCUGCGCGUGAAAGAGAGAAGUGAACCAGAGAAACACACGUUGUGGUAUAUUACCUGGUA [C6G G13C],0.381
3,GUCCUGUUUCACGUACGCGUGAAAGAGAGAAGUGAACCAGAGAAACACACGUUGUGGUAUAUUACCUGGUA [C6G G15A],0.475
4,GUCCUGUUUCACGUGCUCGUGAAAGAGAGAAGUGAACCAGAGAAACACACGUUGUGGUAUAUUACCUGGUA [C6G G17U],0.369
5,GUCCUGUUUCACGUGCGCUUGAAAGAGAGAAGUGAACCAGAGAAACACACGUUGUGGUAUAUUACCUGGUA [C6G G19U],0.201
6,GUCCUGUUUCACGUGCGCGUGAAACAGAGAAGUGAACCAGAGAAACACACGUUGUGGUAUAUUACCUGGUA [C6G G25C],0.744
7,GUCCUGUUUCACGUGCGCGUGAAAGAGAUAAGUGAACCAGAGAAACACACGUUGUGGUAUAUUACCUGGUA [C6G G29U],0.0829
8,GUCCUGUUUCACGUGCGCGUGAAAGAGAGAACUGAACCAGAGAAACACACGUUGUGGUAUAUUACCUGGUA [C6G G32C],0.0741
9,GUCCUGUUUCACGUGCGCGUGAAAGAGAGAAGUCAACCAGAGAAACACACGUUGUGGUAUAUUACCUGGUA [C6G G34C],1.03
10,GUCCUGUUUCACGUGCGCGUGAAAGAGAGAAGUGAACCAGAGAAACACACAUUGUGGUAUAUUACCUGGUA [C6G G51A],0.682
11,GUCCUGUUUCACGUGCGCGUGAAAGAGAGAAGUGAACCAGAGAAACACACCUUGUGGUAUAUUACCUGGUA [C6G G51C],0.458
12,GUCCUGUUUCACGUGCGCGUGAAAGAGAGAAGUGAACCAGAGAAACACACGUUAUGGUAUAUUACCUGGUA [C6G G54A],0.28
13,GUCCUGUUUCACGUGCGCGUGAAAGAGAGAAGUGAACCAGAGAAACACACGUUUUGGUAUAUUACCUGGUA [C6G G54U],0.267
14,GUCCUGUUUCACGUGCGCGUGAAAGAGAGAAGUGAACCAGAGAAACACACGUUGUUGUAUAUUACCUGGUA [C6G G56U],0.141
15,GUCCUGUUUCACGUGCGCGUGAAAGAGAGAAGUGAACCAGAGAAACACACGUUGUGAUAUAUUACCUGGUA [C6G G57A],0.11
16,GUCCUGUUUCACGUGCGCGUGAAAGAGAGAAGUGAACCAGAGAAACACACGUUGUGGUAUAUUACCUAGUA [C6G G68A],0.132
17,GUCCUGUUUCACGUGCGCGUGAAAGAGAGAAGUGAACCAGAGAAACACACGUUGUGGUAUAUUACCUCGUA [C6G G68C],0.131
18,GUCCUGUUUCACGUGCGCGUGAAAGAGAGAAGUGAACCAGAGAAACACACGUUGUGGUAUAUUACCUUGUA [C6G G68U],0.156
19,GUCCUGUAUCACGUGCGCGUGAAAGAGAGAAGUGAACCAGAGAAACACACGUUGUGGUAUAUUACCUGGUA [C6G U8A],0.263
20,GUCCUGUCUCACGUGCGCGUGAAAGAGAGAAGUGAACCAGAGAAACACACGUUGUGGUAUAUUACCUGGUA [C6G U8C],0.228
21,GUCCUGUGUCACGUGCGCGUGAAAGAGAGAAGUGAACCAGAGAAACACACGUUGUGGUAUAUUACCUGGUA [C6G U8G],0.269
22,GUCCUGUUACACGUGCGCGUGAAAGAGAGAAGUGAACCAGAGAAACACACGUUGUGGUAUAUUACCUGGUA [C6G U9A],0.274
23,GUCCUGUUGCACGUGCGCGUGAAAGAGAGAAGUGAACCAGAGAAACACACGUUGUGGUAUAUUACCUGGUA [C6G U9G],0.208
24,GUCCUGUUUCACGUGCGCGUGAAAGAGAGAAGCGAACCAGAGAAACACACGUUGUGGUAUAUUACCUGGUA [C6G U33C],0.206
25,GUCCUGUUUCACGUGCGCGUGAAAGAGAGAAGGGAACCAGAGAAACACACGUUGUGGUAUAUUACCUGGUA [C6G U33G],0.0659
26,GUCCUGUUUCACGUGCGCGUGAAAGAGAGAAGUGAACCAGAGAAACACACGGUGUGGUAUAUUACCUGGUA [C6G U52G],0.583

row,Variant,self-cleavage
1,GUCCUGUUUCACGUGCGCGUGAAAGAGAGAAGUGAACCAGAGAAACACACGUAGUGGUAUAUUACCUGGUA [C6G U53A],0.585
2,GUCCUGUUUCACGUGCGCGUGAAAGAGAGAAGUGAACCAGAGAAACACACGUCGUGGUAUAUUACCUGGUA [C6G U53C],0.329
3,GUCCUGUUUCACGUGCGCGUGAAAGAGAGAAGUGAACCAGAGAAACACACGUUGUGGAAUAUUACCUGGUA [C6G U58A],0.29
4,GUCCUGUUUCACGUGCGCGUGAAAGAGAGAAGUGAACCAGAGAAACACACGUUGUGGCAUAUUACCUGGUA [C6G U58C],0.484
5,GUCCUGUUUCACGUGCGCGUGAAAGAGAGAAGUGAACCAGAGAAACACACGUUGUGGGAUAUUACCUGGUA [C6G U58G],0.498
6,GUCCUGUUUCACGUGCGCGUGAAAGAGAGAAGUGAACCAGAGAAACACACGUUGUGGUAUAAUACCUGGUA [C6G U62A],0.0667
7,GUCCUGUUUCACGUGCGCGUGAAAGAGAGAAGUGAACCAGAGAAACACACGUUGUGGUAUAGUACCUGGUA [C6G U62G],0.159
8,GUCCUGUUUCACGUGCGCGUGAAAGAGAGAAGUGAACCAGAGAAACACACGUUGUGGUAUAUAACCUGGUA [C6G U63A],0.125
9,GUCCUGUUUCACGUGCGCGUGAAAGAGAGAAGUGAACCAGAGAAACACACGUUGUGGUAUAUCACCUGGUA [C6G U63C],0.142
10,GUCCUGUUUCACGUGCGCGUGAAAGAGAGAAGUGAACCAGAGAAACACACGUUGUGGUAUAUGACCUGGUA [C6G U63G],0.19
11,GUCCUGUUUCACGUGCGCGUGAAAGAGAGAAGUGAACCAGAGAAACACACGUUGUGGUAUAUUACCUGGCA [C6G U70C],0.497
12,GUCCUUUUUCACGUGCGCGUGACAGAGAGAAGUGAACCAGAGAAACACACGUUGUGGUAUAUUACCUGGUA [C6U A23C],0.608
13,GUCCUUUUUCACGUGCGCGUGAUAGAGAGAAGUGAACCAGAGAAACACACGUUGUGGUAUAUUACCUGGUA [C6U A23U],0.615
14,GUCCUUUUUCACGUGCGCGUGAAGGAGAGAAGUGAACCAGAGAAACACACGUUGUGGUAUAUUACCUGGUA [C6U A24G],0.353
15,GUCCUUUUUCACGUGCGCGUGAAAGUGAGAAGUGAACCAGAGAAACACACGUUGUGGUAUAUUACCUGGUA [C6U A26U],0.414
16,GUCCUUUUUCACGUGCGCGUGAAAGAGUGAAGUGAACCAGAGAAACACACGUUGUGGUAUAUUACCUGGUA [C6U A28U],0.495
17,GUCCUUUUUCACGUGCGCGUGAAAGAGAGACGUGAACCAGAGAAACACACGUUGUGGUAUAUUACCUGGUA [C6U A31C],0.0728
18,GUCCUUUUUCACGUGCGCGUGAAAGAGAGAAGUGCACCAGAGAAACACACGUUGUGGUAUAUUACCUGGUA [C6U A35C],0.896
19,GUCCUUUUUCACGUGCGCGUGAAAGAGAGAAGUGGACCAGAGAAACACACGUUGUGGUAUAUUACCUGGUA [C6U A35G],0.683
20,GUCCUUUUUCACGUGCGCGUGAAAGAGAGAAGUGAACCCGAGAAACACACGUUGUGGUAUAUUACCUGGUA [C6U A39C],0.504
21,GUCCUUUUUCACGUGCGCGUGAAAGAGAGAAGUGAACCAGCGAAACACACGUUGUGGUAUAUUACCUGGUA [C6U A41C],1.16
22,GUCCUUUUUCACGUGCGCGUGAAAGAGAGAAGUGAACCAGAGCAACACACGUUGUGGUAUAUUACCUGGUA [C6U A43C],0.0901
23,GUCCUUUUUCACGUGCGCGUGAAAGAGAGAAGUGAACCAGAGGAACACACGUUGUGGUAUAUUACCUGGUA [C6U A43G],0.151
24,GUCCUUUUUCACGUGCGCGUGAAAGAGAGAAGUGAACCAGAGAAACACCCGUUGUGGUAUAUUACCUGGUA [C6U A49C],0.0449
